Assay results taken from patent US20260092093A1 (TJ BIOPHARMA SHANGHAI, published 2026).

T1: recombinant hIL-18Rα extracellular domain (human, UniProt Q13478 22-329, biotin label (selection) or fluorescent probe (single-clone FACS), sites not given)
T1 construct: extracellular domain; also called hIL-18Rα ECD; hIL-18Rα-ECD
T1 sequence (looked up): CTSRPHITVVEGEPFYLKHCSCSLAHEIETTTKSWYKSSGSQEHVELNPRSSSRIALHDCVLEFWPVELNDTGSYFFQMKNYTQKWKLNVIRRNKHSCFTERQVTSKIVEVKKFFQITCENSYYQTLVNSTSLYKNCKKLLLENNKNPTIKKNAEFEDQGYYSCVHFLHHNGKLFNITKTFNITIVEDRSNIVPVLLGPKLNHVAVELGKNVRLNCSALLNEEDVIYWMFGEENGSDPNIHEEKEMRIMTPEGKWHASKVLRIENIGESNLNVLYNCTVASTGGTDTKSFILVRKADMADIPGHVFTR

T2: hIL-18Rα ECD-Fc fusion protein (human, UniProt Q13478 22-329)
T2 construct: extracellular domain; captured on Protein A sensor
T2 sequence (looked up): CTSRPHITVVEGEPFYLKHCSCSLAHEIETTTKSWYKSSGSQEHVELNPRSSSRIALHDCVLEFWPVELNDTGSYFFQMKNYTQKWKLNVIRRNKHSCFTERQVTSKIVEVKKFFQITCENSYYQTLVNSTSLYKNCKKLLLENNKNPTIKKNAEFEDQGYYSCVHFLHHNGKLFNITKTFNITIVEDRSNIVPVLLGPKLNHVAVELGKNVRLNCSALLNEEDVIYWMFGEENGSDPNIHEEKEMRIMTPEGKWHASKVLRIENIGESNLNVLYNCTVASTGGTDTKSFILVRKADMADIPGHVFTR


Tests used:
[1] = target: T1, recombinant hIL-18Rα extracellular …; assay: single-clone FACS, yeast display, 10 nM labelled hIL-18Rα ECD
How it was run: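 Yeast clones displaying IL-18 variants (screening rounds 4 and 5), at equal density, incubated with 10 nM fluorescently labelled hIL-18Rα ECD, then washed. Fraction of fluorescence-positive binding cells per clone measured by flow cytometry.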

[2] = target: T2, hIL-18Rα ECD-Fc fusion protein; assay: BLI (Octet RED96), hIL-18Rα ECD-Fc on Protein A sensor
Method: The affinities of IL-18 variant polypeptides for hIL-18Rα were assessed by Biolayer Interferometry (BLI) on Octet RED96 using Protein A sensor coated with hIL-18Rα ECD-Fc fusion protein, and WT hIL-18 was used as a control.

% of fluorescence positive cells [1]	Kd [2]	Response (nm) [2]	koff [2]	kon [2]	Binder
93.8%	11.9 nM	0.0222 nm	0.0271 s⁻¹	2.27e+06 M⁻¹ s⁻¹	IL-18 variant polypeptide M7 (ligand) YFPKLRSKLSVIRNLNDQVLFIDQGNRPLFEDMTDSDCRDNAPRTIFIISMYKHSTARGMAVTISVKCEKISTLSCENKIISFKEMNPPDAIKDTKSDIIFFQRSVPGHDNKMQFESSSYEGYFLACEKERDLFKLILKKEDELGDRSIMFTVQNED
87.1%	67.7 nM	0.0784 nm	0.0231 s⁻¹	340000 M⁻¹ s⁻¹	IL-18 variant polypeptide M17 (ligand) YFPKLRSKLSVIRNLNDQVLFIDQGNRPLFEDMTDSDCRDNAPRTIFIISMYKLSTARGMAVTISVKCEKISTLSCENKIISFKEMNPPDGIKDTKSDIIFFQRSVPGHDNKMQFESSSYEGYFLACEKERDLFKLILKKEDELGDRSIMFTVQNED
88.3%	23.6 nM	0.218 nm	0.00588 s⁻¹	250000 M⁻¹ s⁻¹	IL-18 variant polypeptide M14 (ligand) YFNKLKSKLSVIRNLNDQVLFIDQGNRPLFEDMTDSDCRDNAPRTIFIISMYKPSSSRGMAVTISVKCEKISTLSCENKIISFKEMNPPDRIKDTKSDIIFFQASVPGHDNKMQFESSSYEGYFLACEKERDLFKLILKKEDELGDRSIMFTVQNED
88.5%	42.6 nM	0.111 nm	0.0177 s⁻¹	415000 M⁻¹ s⁻¹	IL-18 variant polypeptide M16 (ligand) YFPKLRSKLSVIRNLNDQVLFIDQGNRPLFEDMTDSDCRDNAPRTIFIISMYKSSRNRGMAVTISVKCEKISTLSCENKIISFKEMNPPDGIKDTKSDIIFFQSSVPGHDNKMQFESSSYEGYFLACEKERDLFKLILKKEDELGDRSIMFTVQNED
96.4%	11.6 nM	0.31 nm	0.0038 s⁻¹	327000 M⁻¹ s⁻¹	IL-18 variant polypeptide M13 (ligand) YFPKLKSKLSVIRNLNDQVLFIDQGNRPLFEDMTDSDCRDNAPRTIFIISMYKQSIWRGMAVTISVKCEKISTLSCENKIISFKEMNPPDNIKDTKSDIIFFQRSVPGHDNKMQFESSSYEGYFLACEKERDLFKLILKKEDELGDRSIMFTVQNED
89.9%	64.9 nM	0.0791 nm	0.0221 s⁻¹	340000 M⁻¹ s⁻¹	IL-18 variant polypeptide M21 (ligand) YFPKLRSKLSVIRNLNDQVLFIDQGNRPLFEDMTDSDCRDNAPRTIFIISMYKSSSTRGMAVTISVKCEKISTLSCENKIISFKEMNPPDGIKDTKSDIIFFQSSVPGHDNKMQFESSSYEGYFLACEKERDLFKLILKKEDELGDRSIMFTVQNED
1.41%	44.1 nM	0.0798 nm	0.0256 s⁻¹	581000 M⁻¹ s⁻¹	IL-18 variant polypeptide M25 (ligand) YFPKLRSKLSVIRNLNDQVLFIDQGNRPLFEDMTDSDCRDNAPRTIFIISMYKLSTTRGMAVTISVKCEKISTLSCENKIISFKEMNPPDRIKDTKSDIIFFQRSVPGHDNKMQFESSSYEGYFLACEKERDLFKLILKKEDELGDRSIMFTVQNED
36.1%	4.88 nM	< 0.02 nm	0.0108 s⁻¹	2.21e+06 M⁻¹ s⁻¹	IL-18 variant polypeptide M9 (ligand) YFPKLRSKLSVIRNLNDQVLFIDQGNRPLFEDMTDSDCRDNAPRTIFIISMYKWSRARGMAVTISVKCEKISTLSCENKIISFKEMNPPDSIKDTKSDIIFFQSSVPGHDNKMQFESSSYEGYFLACEKERDLFKLILKKEDELGDRSIMFTVQNED
88.3%	24.9 nM	0.186 nm	0.0107 s⁻¹	427000 M⁻¹ s⁻¹	IL-18 variant polypeptide M12 (ligand) YFPKLKSKLSVIRNLNDQVLFIDQGNRPLFEDMTDSDCRDNAPRTIFIISMYKGSGARGMAVTISVKCEKISTLSCENKIISFKEMNPPDTIKDTKSDIIFFQRSVPGHDNKMQFESSSYEGYFLACEKERDLFKLILKKEDELGDRSIMFTVQNED
96.7%	57.1 nM	0.0917 nm	0.0119 s⁻¹	207000 M⁻¹ s⁻¹	IL-18 variant polypeptide M26 (ligand) YFPKLRSKLSVIRNLNDQVLFIDQGNRPLFEDMTDSDCRDNAPRTIFIISMYKHSDKRGMAVTISVKCEKISTLSCENKIISFKEMNPPDVIKDTKSDIIFFQYSVPGHDNKMQFESSSYEGYFLACEKERDLFKLILKKEDELGDRSIMFTVQNED
68.1%	48.6 nM	0.0788 nm	0.0235 s⁻¹	483000 M⁻¹ s⁻¹	IL-18 variant polypeptide M10 (ligand) YFPKLRSKLSVIRNLNDQVLFIDQGNRPLFEDMTDSDCRDNAPRTIFIISMYKQSLWRGMAVTISVKCEKISTLSCENKIISFKEMNPPDSIKDTKSDIIFFQRSVPGHDNKMQFESSSYEGYFLACEKERDLFKLILKKEDELGDRSIMFTVQNED
95%	36.7 nM	0.122 nm	0.0183 s⁻¹	499000 M⁻¹ s⁻¹	IL-18 variant polypeptide M15 (ligand) YFPKLRSKLSVIRNLNDQVLFIDQGNRPLFEDMTDSDCRDNAPRTIFIISMYKSSYTRGMAVTISVKCEKISTLSCENKIISFKEMNPPDGIKDTKSDIIFFQRSVPGHDNKMQFESSSYEGYFLACEKERDLFKLILKKEDELGDRSIMFTVQNED
2.36%	368 nM	0.0522 nm	0.0302 s⁻¹	82300 M⁻¹ s⁻¹	IL-18 variant polypeptide M23 (ligand) YFPKLRSKLSVIRNLNDQVLFIDQGNRPLFEDMTDSDCRDNAPRTIFIISMYKYSTRRGMAVTISVKCEKISTLSCENKIISFKEMNPPDNIKDTKSDIIFFQRSVPGHDNKMQFESSSYEGYFLACEKERDLFKLILKKEDELGDRSIMFTVQNED
83.6%	68.2 nM	0.08 nm	0.0189 s⁻¹	277000 M⁻¹ s⁻¹	IL-18 variant polypeptide M11 (ligand) YFPKLRSKLSVIRNLNDQVLFIDQGNRPLFEDMTDSDCRDNAPRTIFIISMYKSSRNRGMAVTISVKCEKISTLSCENKIISFKEMNPPDGIKDTKSDIIFFQTSVPGHDNKMQFESSSYEGYFLACEKERDLFKLILKKEDELGDRSIMFTVQNED
4.83%	4080 nM	0.0592 nm	0.0398 s⁻¹	9740 M⁻¹ s⁻¹	IL-18 variant polypeptide M22 (ligand) YFPKLRSKLSVIRNLNDQVLFIDQGNRPLFEDMTDSDCRDNAPRTIFIISMYKYSRGRGMAVTISVKCEKISTLSCENKIISFKEMNPPDKIKDTKSDIIFFQSSVPGHDNKMQFESSSYEGYFLACEKERDLFKLILKKEDELGDRSIMFTVQNED
1.36%	930 nM	0.0434 nm	0.0451 s⁻¹	48500 M⁻¹ s⁻¹	IL-18 variant polypeptide M24 (ligand) YFPKLRSKLSVIRNLNDQVLFIDQGNRPLFEDMTDSDCRDNAPRTIFIISMYKYSTSRGMAVTISVKCEKISTLSCENKIISFKEMNPPDNIKDTKSDIIFFQRSVPGHDNKMQFESSSYEGYFLACEKERDLFKLILKKEDELGDRSIMFTVQNED
86.2%	35.1 nM	0.136 nm	0.0167 s⁻¹	476000 M⁻¹ s⁻¹	IL-18 variant polypeptide M20 (ligand) YFPKLRSKLSVIRNLNDQVLFIDQGNRPLFEDMTDSDCRDNAPRTIFIISMYKSSRSRGMAVTISVKCEKISTLSCENKIISFKEMNPPDGIKDTKSDIIFFQSSVPGHDNKMQFESSSYEGYFLACEKERDLFKLILKKEDELGDRSIMFTVQNED
90%	112 nM	0.025 nm	0.0554 s⁻¹	495000 M⁻¹ s⁻¹	IL-18 variant polypeptide M19 (ligand) YFPKLKSKLSVIRNLNDQVLFIDQGNRPLFEDMTDSDCRDNAPRTIFIISMYKHSEQRGMAVTISVKCEKISTLSCENKIISFKEMNPPDAIKDTKSDIIFFQRSVPGHDNKMQFESSSYEGYFLACEKERDLFKLILKKEDELGDRSIMFTVQNED
80.9%	33.1 nM	0.173 nm	0.0134 s⁻¹	404000 M⁻¹ s⁻¹	IL-18 variant polypeptide M18 (ligand) YFPKLRSKLSVIRNLNDQVLFIDQGNRPLFEDMTDSDCRDNAPRTIFIISMYKSSRRRGMAVTISVKCEKISTLSCENKIISFKEMNPPDGIKDTKSDIIFFQSSVPGHDNKMQFESSSYEGYFLACEKERDLFKLILKKEDELGDRSIMFTVQNED
